Laboratory results as given in US20250215089A1 (HARBOUR BIOMED SHANGHAI, published 2025).
“And” between values parts separate entries of the source, which are not always exact repeats. Equal entries are not always repeated.

Legend:
human CD40 [1] = target: T1, human CD40 (human, UniProt P25942 21-277); assay: cell-based or functional assay
human CD40 [2] = target: T1, human CD40; assay: FACS, Raji cells
Protocol: The cells were incubated at 4° C. for 1 hours in the dark. After the incubation, the cells were rinsed twice by adding pre-chilled PBS at 100 μL/well, and centrifuged at 500 g at 4° C. for 5 minutes, and the supernatant was discarded. Then, a fluorescent secondary antibody (goat anti-human IgG (H+L) secondary antibody, Alexa Fluor® 488 conjugate, Invitrogen, #A11013, 1:1000 dilution) was added at 100 μL/well, and the cells were incubated at 4° C. for 30 minutes in the dark. The cells were washed twice with pre-chilled PBS at 200 μL/well, and centrifuged at 500 g at 4° C. for 5 minutes, and the supernatant was discarded. Finally, the cells were resuspended in pre-chilled PBS at 200 μL/well. The fluorescence signal values were read using a BD FACS CANTOII flow cytometer or ACEA NovoCyte flow cytometer, and the data were processed and analyzed using FlowJo v10 software (FlowJo, LLC).
(§1) Data processing and graphical analysis were performed using GraphPad Prism 8 software. The binding curve of the antibody to the target cell and parameters, such as EC₅₀ value were obtained by four-parameter nonlinear fitting.

human CD40 [3] = target: T1, human CD40; assay: FACS, MDA-MB-231 cells
human CD40 [4] = target: T1, human CD40; assay: FACS, CHO-K1/hCD40 cells
Summary of the method: (§2)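 Cells carrying bound test antibody were kept 1 h at 4° C in the dark, washed in cold PBS, then stained 30 min at 4° C with Alexa Fluor 488 goat anti-human IgG (H+L) (1:1000). Fluorescence signal was read by flow cytometry.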

human CD40 [5] = target: T1, human CD40; assay: FACS, Raji cells; remark: listed apart in the source
Summary of the method: as §2

cynomolgus monkey PD-L1 = target: T2, cynomolgus monkey PD-L1 (cynomolgus monkey); assay: FACS, CHO-K1/cyPD-L1 cells
T2 construct: whole, on cells; also called cyPD-L1
Summary of the method: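 Binding of antibodies to PD-L1-expressing cells (1×10⁶ cells/mL in PBS/2% BSA), tested in 4-fold dilution series. Incubation 2 h at 4° C in the dark, then washes. Fluorescence read by flow cytometry.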

human CD40 [6] = target: T1, human CD40; assay: cell-based or functional assay; remark: listed apart in the source
cynomolgus monkey CD40 = target: T3, cynomolgus monkey CD40 (cynomolgus monkey); assay: FACS, CHO-K1/cyCD40 cells
T3 construct: whole, on cells; also called cyCD40
Summary of the method: as §2

human PD-L1 [7] = target: T4, human PD-L1 (human, UniProt Q9NZQ7 19-290); assay: FACS, CHO-K1/hPD-L1 cells
T4 construct: whole, on cells; also called hPD-L1; CD274
Protocol: Specifically, the cells expressing PD-L1 were digested and resuspended in PBS buffer containing 2% BSA. The cells were adjusted to a cell density of 1×10⁶ cells/mL, respectively. The cells were seeded in a 96-well V-bottom plate (Corning, #3894) at 100 μL/well, and the antibody to be tested at 2×final concentration with 4-fold concentration gradient dilution was then added at 100 μL/well. The cells were incubated at 4° C. for 2 hours in the dark. After the incubation, the cells were rinsed twice by adding pre-chilled PBS containing 2% BSA at 100 μL/well, and centrifuged at 500 g at 4° C. for 5 minutes, and the supernatant was discarded. […] The cells were washed twice by adding pre-chilled PBS containing 2% BSA at 100 µL/well, and centrifuged at 500 g at 4° C. for 5 minutes, and the supernatant was discarded. Finally, the cells were resuspended in pre-chilled PBS buffer containing 2% BSA at 200 μL/well. The fluorescence signal values were read using a BD FACS CANTOII flow cytometer or ACEA NovoCyte flow cytometer, and the data were processed and analyzed using FlowJo v10 software (FlowJo, LLC).
as §1

human PD-L1 [8] = target: T4, human PD-L1; assay: cell-based or functional assay

T4 sequence (Q9NZQ7 19-290): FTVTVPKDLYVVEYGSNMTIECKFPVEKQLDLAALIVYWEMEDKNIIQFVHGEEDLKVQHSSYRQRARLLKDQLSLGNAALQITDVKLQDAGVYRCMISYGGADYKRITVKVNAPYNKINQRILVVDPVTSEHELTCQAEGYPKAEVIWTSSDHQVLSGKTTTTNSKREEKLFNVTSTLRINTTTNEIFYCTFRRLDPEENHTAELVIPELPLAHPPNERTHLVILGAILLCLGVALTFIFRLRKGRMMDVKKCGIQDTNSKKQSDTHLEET
T1 sequence (P25942 21-277): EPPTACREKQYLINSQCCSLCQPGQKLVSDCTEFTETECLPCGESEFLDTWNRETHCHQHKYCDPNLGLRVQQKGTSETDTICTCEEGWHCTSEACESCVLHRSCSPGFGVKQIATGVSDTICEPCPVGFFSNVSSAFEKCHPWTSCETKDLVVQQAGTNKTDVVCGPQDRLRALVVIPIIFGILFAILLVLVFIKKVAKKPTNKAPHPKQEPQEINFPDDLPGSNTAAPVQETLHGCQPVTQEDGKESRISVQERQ

Row | Binder | EC50, HEK293-hCD40-NFκB reporter, crosslinked (CHO-K1/hCD32B) (human CD40 [1]) | EC50, HEK293-hCD40-NFκB reporter, uncrosslinked (CHO-K1) (human CD40 [1]) | Fold (EC50 in the absence of crosslinking/EC50 in the presence of crosslinking) (human CD40 [1]) | EC50 (human CD40 [2]) | Maximum MFI (human CD40 [2]) | EC50 (human PD-L1 [7]) | Maximum MFI (human PD-L1 [7]) | EC50, Jurkat-NFAT-hPD1 reporter (human PD-L1 [8]) | Maximum (RLU), Jurkat-NFAT-hPD1 reporter (human PD-L1 [8]) | further results
1 | PR003379 (antibody, human IgG2, kappa, V domains shown, also called clone 18C4A12-1B1) VH: QVQLVQSGAEVKKPGASVKVSCKASGYTFAGYYMYWVRQAPGQGLEWMGWINPDSGAPTYAQKFQGRVTMTRDTSISTAYMELSRLRSDDTAVYYCAREKIYYGSGNYYPSFDYWGQGTLVTVSS VL: DIQLTQSPSFLSASVGDRVTITCRASQGISSYLAWYQQKPGKAPKLLIYAASTLQSGVPSRFSGSGSGTEFTLTISSLQPEDFATYYCQQLNSYPWTFGQGTKVEIKR | 0.178 nM | 0.369 nM | 2.07 fold | 0.0699 nM | 3700 MFI |  |  |  |  | 
2 | Selicrelumab (antibody, human IgG2, kappa, V domains shown, Positive control anti-CD40 antibody; also called PR001028) VH: not shown VL: DIQMTQSPSSVSASVGDRVTITCRASQGIYSWLAWYQQKPGKAPNLLIYTASTLQSGVPSRFSGSGSGTDFTLTISSLQPEDFATYYCQQANIFPLTFGGGTKVEIKR | 0.0413 nM | 0.163 nM | 3.94 fold | 0.484 nM | 2450 MFI |  |  |  |  | EC50 (human CD40 [3]): 0.936 nM; EC50 (human CD40 [4]): 2.58 nM; Maximum MFI (human CD40 [4]): 13900 MFI; EC50 (human CD40 [5]): 3.02 nM; Maximum MFI (human CD40 [5]): 5170 MFI; Maximum MFI (cynomolgus monkey PD-L1): 94 MFI; EC50, HEK293-hCD40-NFκB reporter, + CHO-K1 (human CD40 [6]): 0.183 nM and 0.241 nM; EC50, HEK293-hCD40-NFκB reporter, + CHO-K1/hPD-L1 (human CD40 [6]): 0.155 nM and 0.205 nM; EC50 (cynomolgus monkey CD40): 4.74 nM; Maximum MFI (cynomolgus monkey CD40): 53400 MFI
3 | PR006245 (antibody, human IgG1, V domains shown, HCAb; human IgG1 Fc; no light chain) VH: QVQLVESGGGVVQPGMSLRLSCAASGFDFSSYGMYWVRQAPGKGQEWVASIRYTGTEKHYADSVKGRFTISRDNSKNTLYLEMNSLRVEDTAVYYCAKNRAIFGVVPDASDIRGQGTMVTVSS |  |  |  |  |  | 0.964 nM | 405000 MFI | 0.151 nM | 13800 RLU | 
4 | PR006246 (antibody, human IgG1, V domains shown, HCAb; human IgG1 Fc; no light chain) VH: QVQLVESGGGVVQPGMSLRLSCAASGFDFSSYGMYWVRQAPGKGQEWVASIRYTGTEKHYADSVKGRFTISRDNSKNTLYLEMNSLRVEDTAVYYCAKNRAIFGVIPDDSDIRGQGTMVTVSS |  |  |  |  |  | 0.764 nM | 396000 MFI | 0.132 nM | 13700 RLU | 
5 | PR006247 (antibody, human IgG1, V domains shown, HCAb; human IgG1 Fc; no light chain) VH: QVQLVESGGGVVQPGMSLRLSCAASGFDFSSYGMYWVRQAPGKGQEWVASIRYTGTEKHYADSVKGRFTISRDNSKNTLYLEMNSLRVEDTAVYYCAKNRALFGVIPDASDIRGQGTMVTVSS |  |  |  |  |  | 1.01 nM | 410000 MFI | 0.15 nM | 13400 RLU | 
6 | PR006248 (antibody, human IgG1, V domains shown, HCAb; human IgG1 Fc; no light chain) VH: QVQLVESGGGVVQPGMSLRLSCAASGFDFSSYGMYWVRQAPGKGQEWVASIRYTGTEKHYADSVKGRFTISRDNSKNTLYLEMNSLRVEDTAVYYCAKNRALFGVIPDDSDIRGQGTMVTVSS |  |  |  |  |  | 0.606 nM | 404000 MFI | 0.121 nM | 14100 RLU | 
